{"source": "the Human Domainome abundance scans (Beltran et al. 2025)", "parents": {"B1": {"name": "Zinc finger homeobox protein 4, residues 2562 to 2617; numbered along this chain, Q86UP3 (parent)", "chain": "RLRTTITPEQLEILYEKYLLDSNPTRKMLDHIAREVGLKKRVVQVWFQNTRARERK"}}, "note": "± gives the uncertainty stated by the source."}
{"variants_of": "B1", "test": "abundance fitness (aPCA) (normalised: wild type 0, dead -1); higher = more abundant; growth selection in yeast, the domain comes from the species named", "conditions": "Homo sapiens"}
{"variant": "RLRTTITEEQLEILYEKYLLDSNPTRKMLDHIAREVGLKKRVVQVWFQNTRARERK", "abundance fitness": "0.197 ± 0.12"}
{"variant": "RLRTTITAEQLEILYEKYLLDSNPTRKMLDHIAREVGLKKRVVQVWFQNTRARERK", "abundance fitness": "0.076 ± 0.065"}
{"variant": "RLRTTITCEQLEILYEKYLLDSNPTRKMLDHIAREVGLKKRVVQVWFQNTRARERK", "abundance fitness": "-0.54 ± 0.25"}
{"variant": "RLRTTITIEQLEILYEKYLLDSNPTRKMLDHIAREVGLKKRVVQVWFQNTRARERK", "abundance fitness": "0.043 ± 0.22"}
{"variant": "RLRTTITFEQLEILYEKYLLDSNPTRKMLDHIAREVGLKKRVVQVWFQNTRARERK", "abundance fitness": "-0.038 ± 0.17"}
{"variant": "RLRTTITQEQLEILYEKYLLDSNPTRKMLDHIAREVGLKKRVVQVWFQNTRARERK", "abundance fitness": "-0.232 ± 0.19"}
{"variant": "RLRTTITKEQLEILYEKYLLDSNPTRKMLDHIAREVGLKKRVVQVWFQNTRARERK", "abundance fitness": "-0.272 ± 0.085"}
{"variant": "RLRTTITREQLEILYEKYLLDSNPTRKMLDHIAREVGLKKRVVQVWFQNTRARERK", "abundance fitness": "-0.254 ± 0.091"}
{"variant": "RLRTTITMEQLEILYEKYLLDSNPTRKMLDHIAREVGLKKRVVQVWFQNTRARERK", "abundance fitness": "-0.329 ± 0.2"}
{"variant": "RLRTTITHEQLEILYEKYLLDSNPTRKMLDHIAREVGLKKRVVQVWFQNTRARERK", "abundance fitness": "-0.422 ± 0.42"}
{"variant": "RLRTTITDEQLEILYEKYLLDSNPTRKMLDHIAREVGLKKRVVQVWFQNTRARERK", "abundance fitness": "-0.107 ± 0.075"}
{"variant": "RLRTTITGEQLEILYEKYLLDSNPTRKMLDHIAREVGLKKRVVQVWFQNTRARERK", "abundance fitness": "-0.504 ± 0.11"}
{"variant": "RLRTTITLEQLEILYEKYLLDSNPTRKMLDHIAREVGLKKRVVQVWFQNTRARERK", "abundance fitness": "0.167 ± 0.068"}
{"variant": "RLRYTITPEQLEILYEKYLLDSNPTRKMLDHIAREVGLKKRVVQVWFQNTRARERK", "abundance fitness": "-0.109 ± 0.15"}
{"variant": "RLRMTITPEQLEILYEKYLLDSNPTRKMLDHIAREVGLKKRVVQVWFQNTRARERK", "abundance fitness": "-0.022 ± 0.085"}
{"variant": "RLRGTITPEQLEILYEKYLLDSNPTRKMLDHIAREVGLKKRVVQVWFQNTRARERK", "abundance fitness": "-0.052 ± 0.053"}
{"variant": "RLRSTITPEQLEILYEKYLLDSNPTRKMLDHIAREVGLKKRVVQVWFQNTRARERK", "abundance fitness": "-0.057 ± 0.07"}
{"variant": "RLRKTITPEQLEILYEKYLLDSNPTRKMLDHIAREVGLKKRVVQVWFQNTRARERK", "abundance fitness": "-0.408 ± 0.12"}
{"variant": "RLRPTITPEQLEILYEKYLLDSNPTRKMLDHIAREVGLKKRVVQVWFQNTRARERK", "abundance fitness": "0.037 ± 0.11"}
{"variant": "RLRRTITPEQLEILYEKYLLDSNPTRKMLDHIAREVGLKKRVVQVWFQNTRARERK", "abundance fitness": "-0.63 ± 0.075"}
{"variant": "RLRQTITPEQLEILYEKYLLDSNPTRKMLDHIAREVGLKKRVVQVWFQNTRARERK", "abundance fitness": "-0.096 ± 0.12"}
{"variant": "RLRHTITPEQLEILYEKYLLDSNPTRKMLDHIAREVGLKKRVVQVWFQNTRARERK", "abundance fitness": "-0.145 ± 0.079"}
{"variant": "RLRDTITPEQLEILYEKYLLDSNPTRKMLDHIAREVGLKKRVVQVWFQNTRARERK", "abundance fitness": "0.304 ± 0.089"}
{"variant": "RLRWTITPEQLEILYEKYLLDSNPTRKMLDHIAREVGLKKRVVQVWFQNTRARERK", "abundance fitness": "-0.305 ± 0.057"}
{"variant": "RLRVTITPEQLEILYEKYLLDSNPTRKMLDHIAREVGLKKRVVQVWFQNTRARERK", "abundance fitness": "-0.179 ± 0.07"}
{"variant": "RLRNTITPEQLEILYEKYLLDSNPTRKMLDHIAREVGLKKRVVQVWFQNTRARERK", "abundance fitness": "-0.488 ± 0.18"}
{"variant": "RLRLTITPEQLEILYEKYLLDSNPTRKMLDHIAREVGLKKRVVQVWFQNTRARERK", "abundance fitness": "-0.165 ± 0.073"}
{"variant": "RLRCTITPEQLEILYEKYLLDSNPTRKMLDHIAREVGLKKRVVQVWFQNTRARERK", "abundance fitness": "-0.209 ± 0.09"}
{"variant": "RLRFTITPEQLEILYEKYLLDSNPTRKMLDHIAREVGLKKRVVQVWFQNTRARERK", "abundance fitness": "-0.062 ± 0.13"}
{"variant": "RLRTLITPEQLEILYEKYLLDSNPTRKMLDHIAREVGLKKRVVQVWFQNTRARERK", "abundance fitness": "-0.298 ± 0.15"}
{"variant": "RLRTGITPEQLEILYEKYLLDSNPTRKMLDHIAREVGLKKRVVQVWFQNTRARERK", "abundance fitness": "-0.132 ± 0.097"}
{"variant": "RLRTNITPEQLEILYEKYLLDSNPTRKMLDHIAREVGLKKRVVQVWFQNTRARERK", "abundance fitness": "0.265 ± 0.19"}
{"variant": "RLRTFITPEQLEILYEKYLLDSNPTRKMLDHIAREVGLKKRVVQVWFQNTRARERK", "abundance fitness": "-0.312 ± 0.13"}
{"variant": "RLRTPITPEQLEILYEKYLLDSNPTRKMLDHIAREVGLKKRVVQVWFQNTRARERK", "abundance fitness": "-0.032 ± 0.25"}
{"variant": "RLRTIITPEQLEILYEKYLLDSNPTRKMLDHIAREVGLKKRVVQVWFQNTRARERK", "abundance fitness": "0.057 ± 0.17"}
{"variant": "RLRTYITPEQLEILYEKYLLDSNPTRKMLDHIAREVGLKKRVVQVWFQNTRARERK", "abundance fitness": "-0.252 ± 0.23"}
{"variant": "RLRTVITPEQLEILYEKYLLDSNPTRKMLDHIAREVGLKKRVVQVWFQNTRARERK", "abundance fitness": "0.025 ± 0.084"}
{"variant": "RLRTMITPEQLEILYEKYLLDSNPTRKMLDHIAREVGLKKRVVQVWFQNTRARERK", "abundance fitness": "-0.241 ± 0.29"}
{"variant": "RLRTQITPEQLEILYEKYLLDSNPTRKMLDHIAREVGLKKRVVQVWFQNTRARERK", "abundance fitness": "0.085 ± 0.13"}
{"variant": "RLRTAITPEQLEILYEKYLLDSNPTRKMLDHIAREVGLKKRVVQVWFQNTRARERK", "abundance fitness": "-0.398 ± 0.22"}
{"variant": "RLRTKITPEQLEILYEKYLLDSNPTRKMLDHIAREVGLKKRVVQVWFQNTRARERK", "abundance fitness": "-0.332 ± 0.31"}
{"variant": "RLRTDITPEQLEILYEKYLLDSNPTRKMLDHIAREVGLKKRVVQVWFQNTRARERK", "abundance fitness": "0.068 ± 0.23"}
{"variant": "RLRTSITPEQLEILYEKYLLDSNPTRKMLDHIAREVGLKKRVVQVWFQNTRARERK", "abundance fitness": "-0.068 ± 0.053"}
{"variant": "RLRTWITPEQLEILYEKYLLDSNPTRKMLDHIAREVGLKKRVVQVWFQNTRARERK", "abundance fitness": "-0.397 ± 0.16"}
{"variant": "RLRTEITPEQLEILYEKYLLDSNPTRKMLDHIAREVGLKKRVVQVWFQNTRARERK", "abundance fitness": "0.141 ± 0.15"}
{"variant": "RLRTRITPEQLEILYEKYLLDSNPTRKMLDHIAREVGLKKRVVQVWFQNTRARERK", "abundance fitness": "-0.34 ± 0.076"}
{"variant": "RLRTTIAPEQLEILYEKYLLDSNPTRKMLDHIAREVGLKKRVVQVWFQNTRARERK", "abundance fitness": "0.208 ± 0.12"}
